Data on 153 variants can be found in the RNAGym collection of RNA variant scans (doi:10.1093/molbev/msab373).

B1: Azoarcus group I ribozyme (parent)
chain: GUGCCUUGCGCCGGGAAACCACGCAAGGGAUGGUGUCAAAUUCGGCGAAACCUAAGCGCCCGCCCGGGCGUAUGGCAACGCCGAGCCAAGCUUCGGCGCCUGCGCCGAUGAAGGUGUAGAGACUAGACGGCACCCACCUAAGGCAAACGCUAUGGUGAAGGCAUAGUCCAGGGAGUGGCGAAAGUCACACAAACCGG

In the data set the parent is B1. Kind of data set: reverse-splicing fitness (ratio to wild type); higher = more active; in vitro selection; Mg2+ level not given. Put shortly:
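An in vitro group I ribozyme library with randomized positions was T7-transcribed and gel-purified. In triplicate, 10 pmol RNA in EPPS pH 7.5 was reacted with 50 pmoles of a 30-nt RNA substrate for 1 h at 37 °C across several added MgCl2 levels (1–48 mM), then stopped with EDTA. Products were reverse transcribed from a substrate-complementary primer, PCR-amplified and sequenced (HiSeq 4000). Fitness is a variant's read proportion after selection over that before, normalised to wild type.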
As to A145U C169U U176C, the reverse-splicing fitness came to 0.149.

Turning to A145U C169U U176A, the reverse-splicing fitness came to 0.109. The figure for A145U C169U U176G is 0.013. The figure for C150G C169A U176G is 0.00618; for C150G C169A U176A it is 0.0121.

As to C150G C169A U176C, the reverse-splicing fitness was found to be 0.0144.

On to C150U C169U U176G, for which the reverse-splicing fitness is 0.0109. For C150U C169U U176A, the reverse-splicing fitness is 0.0877. With C150U C169U U176C, the reverse-splicing fitness was 0.128.

Regarding A145U C150G C169G U176C, the reverse-splicing fitness was found to be 0.00868. The figure for A145U C150G C169G U176G is 0.00509; for A145U C150G C169G U176A it is 0.0118; for A145U C150A C169A it is 0.0212. The figure for A145U C150A C169U is 0.0521; for A145U C150A C169G it is 0.0369.

Regarding A145U C150A C169G U176G, the reverse-splicing fitness is 0.00588.

On to A145U C150A C169G U176A, for which the reverse-splicing fitness was 0.0176. To A145U C150A C169G U176C belongs 0.0285; to C150U C169A U176G, 0.00623. The figure for C150U C169A U176C is 0.0431. C150U C169A U176A: the reverse-splicing fitness was found to be 0.0259.

Take A145U C150U C169U U176G: the reverse-splicing fitness was determined as 0.0111. To A145U C150U C169U U176C belongs 0.141; to A145U C150U C169U U176A, 0.0998. The figure for A145U C150G C169A U176C is 0.0151. To A145U C150G C169A U176A belongs 0.0122; to A145U C150G C169A U176G, 0.00602; to C150U C169G U176G, 0.0074. For C150U C169G U176C, the reverse-splicing fitness amounted to 0.0925.

C150U C169G U176A: the reverse-splicing fitness amounted to 0.0516. A145G U176C: the reverse-splicing fitness turned out to be 0.91. As to A145G U176G, the reverse-splicing fitness is 0.325. On to A145G U176A, for which the reverse-splicing fitness is 0.863. To C150A C169U U176C belongs 0.0421; to C150A C169U U176G, 0.00737; to C150A C169U U176A, 0.0369. To A145U C150U U176G belongs 0.342; to A145U C150U U176A, 0.908. A145U C150U U176C: the reverse-splicing fitness came out at 0.816. A145U C169A U176A: the reverse-splicing fitness came to 0.0255.

As to A145U C169A U176C, the reverse-splicing fitness was 0.0523. For the variant A145U C169A U176G, the reverse-splicing fitness came to 0.00543.

In the case of A145U C150G C169U U176G, the reverse-splicing fitness was 0.00591.

On to A145U C150G C169U U176C, for which the reverse-splicing fitness turned out to be 0.0406. As for A145U C150G C169U U176A, the reverse-splicing fitness was 0.0182. On to A145G C169G U176C, for which the reverse-splicing fitness came to 0.14. Take A145G C169G U176G: the reverse-splicing fitness stood at 0.00802.

On to A145G C169G U176A, for which the reverse-splicing fitness worked out at 0.0818. The figure for A145U C150G U176A is 0.326; for A145U C150G U176C it is 0.351. The figure for A145U C150G U176G is 0.108; for A145G C150U C169U U176C it is 0.149. For A145G C150U C169U U176A, the reverse-splicing fitness is 0.113. The figure for A145G C150U C169U U176G is 0.00803; for C150U U176A it is 0.814. To C150U U176C belongs 0.869. To C150U U176G belongs 0.306; to C150A C169G U176C, 0.0327. With C150A C169G U176G, the reverse-splicing fitness is 0.00565.

C150A C169G U176A: the reverse-splicing fitness stood at 0.026. To A145U belongs 0.946. With C169G U176C, the reverse-splicing fitness is 0.137. To C169G U176G belongs 0.00806; to C169G U176A, 0.0721. Consider C150A C169A U176A, for which the reverse-splicing fitness came out at 0.0214.

Regarding C150A C169A U176G, the reverse-splicing fitness stood at 0.00665.

C150A C169A U176C: the reverse-splicing fitness came out at 0.0227. To A145G C169A U176G belongs 0.00541. Turning to A145G C169A U176C, the reverse-splicing fitness turned out to be 0.0662. Take A145G C169A U176A: the reverse-splicing fitness was determined as 0.0412. The figure for A145G C150U C169G is 0.239; for A145G C150U C169U it is 0.382; for C150U it is 0.878. For the variant C150G, the reverse-splicing fitness was 0.42. C150A: the reverse-splicing fitness turned out to be 0.484. C169U U176C: the reverse-splicing fitness turned out to be 0.182. For C169U U176G, the reverse-splicing fitness stood at 0.0131.

For C169U U176A, the reverse-splicing fitness is 0.114. The figure for C150A C169G is 0.0379; for C150A C169U it is 0.061. As for C150A C169A, the reverse-splicing fitness is 0.0251. Take A145U C150U C169A U176A: the reverse-splicing fitness stood at 0.0236. The figure for A145U C150U C169A U176C is 0.04; for A145U C150U C169A U176G it is 0.00551. In the case of A145U C150A C169A U176C, the reverse-splicing fitness came out at 0.0139. The figure for A145U C150A C169A U176A is 0.014. Regarding A145U C150A C169A U176G, the reverse-splicing fitness came to 0.00528. To A145U C150A C169U U176A belongs 0.031; to A145U C150A C169U U176G, 0.00699. As for A145U C150A C169U U176C, the reverse-splicing fitness worked out at 0.0345. The figure for C150G U176G is 0.0576; for C150G U176A it is 0.219; for C150G U176C it is 0.286. To A145U C150U C169A belongs 0.106; to A145U C150U C169G, 0.215. The figure for A145U C150U C169U is 0.312; for A145U C169G U176C it is 0.133; for A145U C169G U176A it is 0.0717. As to A145U C169G U176G, the reverse-splicing fitness came to 0.00761. The figure for A145U C150A U176C is 0.363. To A145U C150A U176G belongs 0.177; to A145U C150A U176A, 0.4. On to A145G C150U C169G U176C, for which the reverse-splicing fitness turned out to be 0.11. In the case of A145G C150U C169G U176G, the reverse-splicing fitness stood at 0.00685. Regarding A145G C150U C169G U176A, the reverse-splicing fitness is 0.0615.

Take C150A U176C: the reverse-splicing fitness stood at 0.398. Consider C150A U176A, for which the reverse-splicing fitness was 0.406. The figure for C150A U176G is 0.185; for A145G C169U it is 0.369. To A145G C169G belongs 0.302; to A145G C169A, 0.172. For A145G C169U U176A, the reverse-splicing fitness amounted to 0.123. Consider A145G C169U U176G, for which the reverse-splicing fitness was found to be 0.0104.

As for A145G C169U U176C, the reverse-splicing fitness is 0.174. The figure for A145G C150U U176A is 0.844; for A145G C150U U176G it is 0.308. For A145G C150U U176C, the reverse-splicing fitness worked out at 0.821.

In the case of C150U C169G, the reverse-splicing fitness amounted to 0.172. As for C150U C169A, the reverse-splicing fitness stood at 0.0973. The figure for C150U C169U is 0.247; for C169G it is 0.323; for C169U it is 0.407.

With C169A, the reverse-splicing fitness is 0.18. As to C150G C169U U176G, the reverse-splicing fitness came out at 0.00596.

As to C150G C169U U176A, the reverse-splicing fitness worked out at 0.0131. To C150G C169U U176C belongs 0.0326; to A145U C150U C169G U176G, 0.008. A145U C150U C169G U176A: the reverse-splicing fitness stood at 0.0606.

Turning to A145U C150U C169G U176C, the reverse-splicing fitness worked out at 0.0907. For the variant U176G, the reverse-splicing fitness stood at 0.348. U176C: the reverse-splicing fitness amounted to 0.815.

U176A: the reverse-splicing fitness is 0.87. As to A145U C169G, the reverse-splicing fitness came out at 0.3. The figure for A145U C169U is 0.407; for A145U C169A it is 0.173; for A145U C150G it is 0.512. For the variant A145U C150A, the reverse-splicing fitness turned out to be 0.465. The figure for A145U C150U is 0.943; for A145U U176G it is 0.462.

With A145U U176A, the reverse-splicing fitness was determined as 0.937. The figure for A145U U176C is 0.911.

In the case of A145U C150G C169A, the reverse-splicing fitness was determined as 0.0224.

Regarding A145U C150G C169G, the reverse-splicing fitness is 0.0415.

As for A145U C150G C169U, the reverse-splicing fitness was 0.0635.

Consider C150G C169A, for which the reverse-splicing fitness stood at 0.02. The figure for C150G C169G is 0.0309; for C150G C169U it is 0.0492; for C150G C169G U176C it is 0.0077.

With C150G C169G U176G, the reverse-splicing fitness amounted to 0.0051. The figure for C150G C169G U176A is 0.00867. To C169A U176C belongs 0.0638; to C169A U176A, 0.0336; to C169A U176G, 0.0054.
